The values that follow are results of earlier work, collected in US9506909B2, “Homoarginine as a biomarker for the risk of mortality” (Synlab Medizinisches Versorgungszentrum Heidelberg GmbH, priority 2010, dated 2016).

For series [1] the following is noted: storage for 48 hours at room temperature or at 40 Celsius.

As for “BNP: active natriuretic hormone, 32 amino acids, cleaved from proBNP”, for the setting “in vivo”, the in-vivo half-life was 0.333 h. For the same molecule, the “concentration loss on storage” value in series [1] is recorded as “at least 20%”.

B1: NTproBNP: N-terminal pro peptide of proBNP, 76 amino acids, inactive counterpart of BNP (protein, UniProt P16860 27-102, looked up)
NT-proBNP: HPLGSPGSASDLETSGLQEQRNHLQGKLSELQVEQTSLEPLQESPRPTGVWKSREVATEGIRGHRKMVLYTLRAPR
modifications: NT-proBNP
As to B1, the “in-vivo half-life, longer than that of BNP” value (printed as the difference to the half-life of BNP) was 2 h.
